According to paper PMC7954794, “Protein context shapes the specificity of SH3 domain-mediated interactions in vivo” (Nature Communications, 2021):

Test system: Abp1 PPIs
Assay: DHFR-PCA of Abp1 SH3-swapped baits (Fig. 2B-D, S2C, S2F);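 on Protein-protein interaction distance between Abp1 SH3-swapped baits, to ABP1: Euclidean distance between DHFR-PCA score profiles of the baits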;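 on Protein-protein interaction distance between Abp1 SH3-swapped baits, to BEM1-2: Euclidean distance between DHFR-PCA score profiles of the baits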;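 on Protein-protein interaction distance between Abp1 SH3-swapped baits, to BOI1: Euclidean distance between DHFR-PCA score profiles of the baits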;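 on Protein-protein interaction distance between Abp1 SH3-swapped baits, to BZZ1-1: Euclidean distance between DHFR-PCA score profiles of the baits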
Assay type: cell-based, Saccharomyces cerevisiae
How it was run: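 Yeast DHFR-PCA in which Abp1 baits, carrying their SH3 replaced by CRISPR–Cas9 with one of 27 yeast SH3s or human CTTN, HCLS1 or DBNL SH3s, were mated against 575 SH3-associated DHFR F[3] preys plus 40 negative controls. Four tests were run per PPI. Diploids were selected twice (48 h, 30 °C), then grown 4 days on PCA selection media.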

[1] = number of PPIs, difference, Abp1 SH3-swapped with the listed SH3, Fig2D,S2F

B1: LSB3 (protein)
chain: MGINNPIPRSLKSETKKAAKILASFVKPNQVFGADQVIPPDVLKRAKGLAIITILKAGFLFSGRAGSGVIVARLKDGTWSAPSAIAMAGAGAGGMVGIELTDFVFILNTQDAVKSFSEFGTITLGGNVSVSAGPLGRSAEAAASASAGGVAAVFAYSKSKGLFAGVSVEGSAIIERREANRKFYGDNCTAKMILSGRIRPPPAVDPLFRVLESRAFNYRPSNGGRGSFDDDEDDYYDDDDYYNDIPSSFSSTDASSTRPNTRSTRRRAQSGSRYTFDDDDDDDDYGTGYSRNSRLAPTNSGGSGGKLDDPSGASSYYASHRRSGTAQSRARSSRNRWADDEYDDYDDDYESGYRRGNGRDRTKDREVDDLSNRFSKSRISSASTPQTSQGRFTAPTSPSTSSPKAVALYSFAGEESGDLPFRKGDVITILKKSDSQNDWWTGRVNGREGIFPANYVELV
modifications: left off: DHFR F[3], C-terminal, kept
Protein-protein interaction distance between Abp1 SH3-swapped baits, to ABP1 (Abp1 bait with swapped SH3, distance to bait with ABP1 SH3, sheet Fig2C): 13.53 | Protein-protein interaction distance between Abp1 SH3-swapped baits, to BBC1 (distance to Abp1 bait with BBC1 SH3, sheet Fig2C): 13.63 | Protein-protein interaction distance between Abp1 SH3-swapped baits, to BEM1-1 (distance to Abp1 bait with BEM1-1 SH3, sheet Fig2C): 19.15 | Protein-protein interaction distance between Abp1 SH3-swapped baits, to BEM1-2 (distance to Abp1 bait with BEM1-2 SH3, sheet Fig2C): 36.03 | Protein-protein interaction distance between Abp1 SH3-swapped baits, to BOI1 (distance to Abp1 bait with BOI1 SH3, sheet Fig2C): 16.12 | Protein-protein interaction distance between Abp1 SH3-swapped baits, to BOI2 (distance to Abp1 bait with BOI2 SH3, sheet Fig2C): 19.6 | Protein-protein interaction distance between Abp1 SH3-swapped baits, to BUD14 (distance to Abp1 bait with BUD14 SH3, sheet Fig2C): 22.11 | Protein-protein interaction distance between Abp1 SH3-swapped baits, to BZZ1-1 (distance to Abp1 bait with BZZ1-1 SH3, sheet Fig2C): 10.79 | Protein-protein interaction distance between Abp1 SH3-swapped baits, to BZZ1-2 (distance to Abp1 bait with BZZ1-2 SH3, sheet Fig2C): 16.06 | Protein-protein interaction distance between Abp1 SH3-swapped baits, to CDC25 (distance to Abp1 bait with CDC25 SH3, sheet Fig2C): 30.47 | Protein-protein interaction distance between Abp1 SH3-swapped baits, to CTTN (distance to Abp1 bait with CTTN SH3, sheet Fig2C): 16.7 | Protein-protein interaction distance between Abp1 SH3-swapped baits, to CYK3 (distance to Abp1 bait with CYK3 SH3, sheet Fig2C): 31.13 | Protein-protein interaction distance between Abp1 SH3-swapped baits, to DBNL (distance to Abp1 bait with DBNL SH3, sheet Fig2C): 10.88 | Protein-protein interaction distance between Abp1 SH3-swapped baits, to FUS1 (distance to Abp1 bait with FUS1 SH3, sheet Fig2C): 23.48 | Protein-protein interaction distance between Abp1 SH3-swapped baits, to HCLS1 (distance to Abp1 bait with HCLS1 SH3, sheet Fig2C): 10.8 | Protein-protein interaction distance between Abp1 SH3-swapped baits, to HOF1 (distance to Abp1 bait with HOF1 SH3, sheet Fig2C): 34.67 | Protein-protein interaction distance between Abp1 SH3-swapped baits, to HSE1 (distance to Abp1 bait with HSE1 SH3, sheet Fig2C): 12.29 | Protein-protein interaction distance between Abp1 SH3-swapped baits, to LSB1 (distance to Abp1 bait with LSB1 SH3, sheet Fig2C): 3.731 | Protein-protein interaction distance between Abp1 SH3-swapped baits, to LSB3 (distance to Abp1 bait with LSB3 SH3, sheet Fig2C): 0.00 | Protein-protein interaction distance between Abp1 SH3-swapped baits, to MYO3 (distance to Abp1 bait with MYO3 SH3, sheet Fig2C): 9.625 | Protein-protein interaction distance between Abp1 SH3-swapped baits, to MYO5 (distance to Abp1 bait with MYO5 SH3, sheet Fig2C): 8.063 | Protein-protein interaction distance between Abp1 SH3-swapped baits, to NBP2 (distance to Abp1 bait with NBP2 SH3, sheet Fig2C): 21.33 | Protein-protein interaction distance between Abp1 SH3-swapped baits, to PEX13 (distance to Abp1 bait with PEX13 SH3, sheet Fig2C): 7.361 | Protein-protein interaction distance between Abp1 SH3-swapped baits, to PIN3 (distance to Abp1 bait with PIN3 SH3, sheet Fig2C): 5.817 | Protein-protein interaction distance between Abp1 SH3-swapped baits, to RVS167 (distance to Abp1 bait with RVS167 SH3, sheet Fig2C): 7.852 | Protein-protein interaction distance between Abp1 SH3-swapped baits, to SDC25 (distance to Abp1 bait with SDC25 SH3, sheet Fig2C): 36.63 | Protein-protein interaction distance between Abp1 SH3-swapped baits, to SHO1 (distance to Abp1 bait with SHO1 SH3, sheet Fig2C): 11.76 | Protein-protein interaction distance between Abp1 SH3-swapped baits, to SLA1-1 (distance to Abp1 bait with SLA1-1 SH3, sheet Fig2C): 32.92 | Protein-protein interaction distance between Abp1 SH3-swapped baits, to SLA1-2 (distance to Abp1 bait with SLA1-2 SH3, sheet Fig2C): 23.82 | Protein-protein interaction distance between Abp1 SH3-swapped baits, to SLA1-3 (distance to Abp1 bait with SLA1-3 SH3, sheet Fig2C): 5.438 | Protein-protein interaction distance between Abp1 SH3-swapped baits, to YSC84 (distance to Abp1 bait with YSC84 SH3, sheet Fig2C): 3.425 | PPIs gained by Abp1 - SH3-dependent PPIs gained by Abp1 [1]: 37 | SH3-dependent PPIs - SH3-dependent PPIs gained by Abp1 [1]: 15 | SH3-dependent PPIs gained by Abp1 (number of PPIs, Abp1 SH3-swapped with the listed SH3, DHFR-PCA, Fig2D,S2F): 4
